The source of these data is paper PMC11381329 (Nucleic Acids Research, 2024).

In this test the target is T1, GST-UTP13^1–320 (human, UniProt Q12788 1-320).
T1 sequence: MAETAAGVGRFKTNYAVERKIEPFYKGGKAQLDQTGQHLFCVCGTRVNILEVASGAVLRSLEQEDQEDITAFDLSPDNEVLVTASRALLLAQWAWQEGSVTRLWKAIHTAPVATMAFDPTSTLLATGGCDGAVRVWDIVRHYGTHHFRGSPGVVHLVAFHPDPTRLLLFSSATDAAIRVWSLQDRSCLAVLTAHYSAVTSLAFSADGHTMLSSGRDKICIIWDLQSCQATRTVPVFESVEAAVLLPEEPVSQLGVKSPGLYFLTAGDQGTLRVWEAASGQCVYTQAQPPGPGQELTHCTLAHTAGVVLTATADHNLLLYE
Put plainly: pull-down.

B1: HIS-UTP3^1–319 (domain or fragment)
chain: MVGRSRRRGAAKWAAVRAKAGPTLTDENGDDLGLPPSPGDTSYYQDQVDDFHEARSRAALAKGWNEVQSGDEEDGEEEEEEVLALDMDDEDDEDGGNAGEEEEEENADDDGGSSVQSEAEASVDPSLSWGQRKKLYYDTDYGSKSRGRQSQQEAEEEEREEEEEAQIIQRRLAQALQEDDFGVAWVEAFAKPVPQVDEAETRVVKDLAKVSVKEKLKMLRKESPELLELIEDLKVKLTEVKDELEPLLELVEQGIIPPGKGSQYLRTKYNLYLNYCSNISFYLILKARRVPAHGHPVIERLVTYRNLINKLSVVDQKLS
Take B1: the binding result was “binds”.
